Patent US20240100159A1, “USE OF IL-7R-ALPHA-GAMMA AGONIST PEPTIDES IN CELL MANUFACTURING” (MEDIKINE, INC., priority 2022, published 2024)
Ends that are not written are not given here.

T1: hu-IL-7Rγc subunit (human, UniProt P31785 23-262, limits assumed)
T1 construct: also called human Rγc subunit; common γc receptor
T1 sequence (looked up): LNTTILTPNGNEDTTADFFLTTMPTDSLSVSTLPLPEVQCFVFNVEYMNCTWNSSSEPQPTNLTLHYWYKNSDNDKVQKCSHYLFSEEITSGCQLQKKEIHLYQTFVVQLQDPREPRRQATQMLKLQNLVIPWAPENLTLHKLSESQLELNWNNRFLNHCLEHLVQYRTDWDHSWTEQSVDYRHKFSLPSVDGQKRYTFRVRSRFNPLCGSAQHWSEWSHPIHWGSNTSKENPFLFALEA


The binders below were run against T1, hu-IL-7Rγc subunit.

Row | IC50 | Binder
1 | < 100 µM | EGSTTTIECEEWAGVELCWL (not fully specified (bridges); cysteine pairing not given here, also called Rγc ligand) [SEQ ID NO 273]
2 | < 100 µM | IECEEWAGVELCWL (not fully specified (bridges); cysteine pairing not given here, also called Rγc ligand) [SEQ ID NO 276]
3 | < 100 µM | WSKKAEVVCEEWGGVEFCWI (not fully specified (bridges); cysteine pairing not given here, also called Rγc ligand) [SEQ ID NO 281]
4 | < 100 µM | VVCQEWEGVELCWVEPPLLP (not fully specified (bridges); cysteine pairing not given here, also called Rγc ligand) [SEQ ID NO 295]
5 | < 100 µM | VVCQEWEGVELCWC (not fully specified (bridges); cysteine pairing not given here, also called Rγc ligand) [SEQ ID NO 270]
6 | < 100 µM | KLTVECQDWDGVELCWVGVE (not fully specified (bridges); cysteine pairing not given here, also called Rγc ligand) [SEQ ID NO 293]
7 | < 100 µM | ILCQEFEGVELCWLEESLAE (not fully specified (bridges); cysteine pairing not given here, also called Rγc ligand) [SEQ ID NO 284]
8 | < 100 µM | KPVVVCEEWQGVELCWLEIQ (not fully specified (bridges); cysteine pairing not given here, also called Rγc ligand) [SEQ ID NO 301]
9 | < 100 µM | FAHHGVVECQEWYGVELCWQ (not fully specified (bridges); cysteine pairing not given here, also called Rγc ligand) [SEQ ID NO 279]
10 | < 100 µM | KTTVACQDWGGVELCWVERV (not fully specified (bridges); cysteine pairing not given here, also called Rγc ligand) [SEQ ID NO 298]
11 | < 100 µM | VTCQEYEGVELCWTVGCAYS (not fully specified (bridges); cysteine pairing not given here, also called Rγc ligand) [SEQ ID NO 307]
12 | < 100 µM | RLLNSVVECLDWEGVELCWQ (not fully specified (bridges); cysteine pairing not given here, also called Rγc ligand) [SEQ ID NO 268]
13 | < 100 µM | RSNQTVVECQDWEGVELCWQ (not fully specified (bridges); cysteine pairing not given here, also called Rγc ligand) [SEQ ID NO 282]
14 | < 100 µM | VVCEVFQGVELCWCENEEFT (not fully specified (bridges); cysteine pairing not given here, also called Rγc ligand) [SEQ ID NO 302]
15 | < 100 µM | RSDDEVVVCQEWEGVELCWQ (not fully specified (bridges); cysteine pairing not given here, also called Rγc ligand) [SEQ ID NO 275]
16 | < 100 µM | VVCQEWEGVELCWYAGECMQ (not fully specified (bridges); cysteine pairing not given here, also called Rγc ligand) [SEQ ID NO 283]
17 | < 100 µM | KKIVVCQDWGGVELCWTEDD (not fully specified (bridges); cysteine pairing not given here, also called Rγc ligand) [SEQ ID NO 317]
